Experimental data published in IntAct's records for PubMed 26226295.

B1: EH domain-containing protein 3 (Homo sapiens), Q9NZN3 (parent)
chain: MFSWLGTDDRRRKDPEVFQTVSEGLKKLYKSKLLPLEEHYRFHEFHSPALEDADFDNKPMVLLVGQYSTGKTTFIRYLLEQDFPGMRIGPEPTTDSFIAVMQGDMEGIIPGNALVVDPKKPFRKLNAFGNAFLNRFVCAQLPNPVLESISVIDTPGILSGEKQRISRGYDFAAVLEWFAERVDRIILLFDAHKLDISDEFSEVIKALKNHEDKMRVVLNKADQIETQQLMRVYGALMWSLGKIVNTPEVIRVYIGSFWSHPLLIPDNRKLFEAEEQDLFRDIQSLPRNAALRKLNDLIKRARLAKVHAYIISSLKKEMPSVFGKDNKKKELVNNLAEIYGRIEREHQISPGDFPNLKRMQDQLQAQDFSKFQPLKSKLLEVVDDMLAHDIAQLMVLVRQEESQRPIQMVKGGAFEGTLHGPFGHGYGEGAGEGIDDAEWVVARDKPMYDEIFYTLSPVDGKITGANAKKEMVRSKLPNSVLGKIWKLADIDKDGMLDDDEFALANHLIKVKLEGHELPNELPAHLLPPSKRKVAE
partner: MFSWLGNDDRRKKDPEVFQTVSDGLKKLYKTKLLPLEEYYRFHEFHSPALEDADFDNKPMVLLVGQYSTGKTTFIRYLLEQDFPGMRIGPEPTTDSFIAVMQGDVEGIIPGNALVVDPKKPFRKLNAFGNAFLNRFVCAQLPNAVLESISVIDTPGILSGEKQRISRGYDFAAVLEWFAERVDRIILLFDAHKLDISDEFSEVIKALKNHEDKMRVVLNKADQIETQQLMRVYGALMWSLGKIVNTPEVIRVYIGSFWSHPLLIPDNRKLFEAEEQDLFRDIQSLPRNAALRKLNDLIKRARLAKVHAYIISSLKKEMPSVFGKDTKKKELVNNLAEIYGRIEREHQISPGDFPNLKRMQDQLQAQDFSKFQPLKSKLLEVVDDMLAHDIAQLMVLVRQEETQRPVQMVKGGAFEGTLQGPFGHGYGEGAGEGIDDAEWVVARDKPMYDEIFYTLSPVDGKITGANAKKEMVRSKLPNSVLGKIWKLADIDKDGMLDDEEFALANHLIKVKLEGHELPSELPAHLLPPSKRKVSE
B2: EH domain-containing protein 3 (Mus musculus), Q9QXY6 (parent)
chain: B1 partner
partner: B1 chain

Variants of: B1
Conditions: with ehd3_mouse Ehd3, Q9QXY6

| Variant | effect of a mutation on the interaction |
| --- | --- |
| MFSWLGTDDRRRKDPEVFQTVSEGLKKLYKSKLLPLEEHYRFHEFHSPALEDADFDNKPMVLLVGQYSTGKTTFIRYLLEQDFPGMRIGPEPTTDSFIAVMQGDMEGIIPGNALVVDPKKPFRKLNAFGNAFLNRFVCAQLPNPVLESISVIDTPGILSGEKQRISRGYDFAAVLEWFAERVDRIILLFDAHKLDISDEFSEVIKALKNHEDKMRVVLNKADQIETQQLMRVYGALMWSLGKIVNTPEVIRVYIGSFWSHPLLIPDNRKLFEAEEQDLFRDIQSLPRNAALRKLNDLIKRARLAKVHAYIISSLRKEMPSVFGKDNKKKELVNNLAEIYGRIEREHQISPGDFPNLKRMQDQLQAQDFSKFQPLKSKLLEVVDDMLAHDIAQLMVLVRQEESQRPIQMVKGGAFEGTLHGPFGHGYGEGAGEGIDDAEWVVARDKPMYDEIFYTLSPVDGKITGANAKKEMVRSKLPNSVLGKIWKLADIDKDGMLDDDEFALANHLIKVKLEGHELPNELPAHLLPPSKRKVAE [K315R] | with no effect |

Variants of: B1
Conditions: with ehd3_mouse Ehd3, Q9QXY6
Remark: another data set of the same source

| Variant | effect of a mutation on the interaction |
| --- | --- |
| MFSWLGTDDRRRKDPEVFQTVSEGLKKLYKSKLLPLEEHYRFHEFHSPALEDADFDNKPMVLLVGQYSTGKTTFIRYLLEQDFPGMRIGPEPTTDSFIAVMQGDMEGIIPGNALVVDPKKPFRKLNAFGNAFLNRFVCAQLPNPVLESISVIDTPGILSGEKQRISRGYDFAAVLEWFAERVDRIILLFDAHKLDISDEFSEVIKALKNHEDKMRVVLNKADQIETQQLMRVYGALMWSLGKIVNTPEVIRVYIGSFWSHPLLIPDNRKLFEAEEQDLFRDIQSLPRNAALRKLNDLIKRARLAKVHAYIISSLRKEMPSVFGKDNKKKELVNNLAEIYGRIEREHQISPGDFPNLKRMQDQLQAQDFSKFQPLKSKLLEVVDDMLAHDIAQLMVLVRQEESQRPIQMVKGGAFEGTLHGPFGHGYGEGAGEGIDDAEWVVARDKPMYDEIFYTLSPVDGKITGANAKKEMVRSKLPNSVLGKIWKLADIDKDGMLDDDEFALANHLIKVRLEGHELPNELPAHLLPPSKRKVAE [K315R;K511R] | with no effect |

Variants of: B1
Conditions: with ehd3_mouse Ehd3, Q9QXY6
Remark: another data set of the same source

| Variant | effect of a mutation on the interaction |
| --- | --- |
| MFSWLGTDDRRRKDPEVFQTVSEGLKKLYKSKLLPLEEHYRFHEFHSPALEDADFDNKPMVLLVGQYSTGKTTFIRYLLEQDFPGMRIGPEPTTDSFIAVMQGDMEGIIPGNALVVDPKKPFRKLNAFGNAFLNRFVCAQLPNPVLESISVIDTPGILSGEKQRISRGYDFAAVLEWFAERVDRIILLFDAHKLDISDEFSEVIKALKNHEDKMRVVLNKADQIETQQLMRVYGALMWSLGKIVNTPEVIRVYIGSFWSHPLLIPDNRKLFEAEEQDLFRDIQSLPRNAALRKLNDLIKRARLAKVHAYIISSLKKEMPSVFGKDNKKKELVNNLAEIYGRIEREHQISPGDFPNLKRMQDQLQAQDFSKFQPLKSKLLEVVDDMLAHDIAQLMVLVRQEESQRPIQMVKGGAFEGTLHGPFGHGYGEGAGEGIDDAEWVVARDKPMYDEIFYTLSPVDGKITGANAKKEMVRSKLPNSVLGKIWKLADIDKDGMLDDDEFALANHLIKVRLEGHELPNELPAHLLPPSKRKVAE [K511R] | with no effect |

Variants of: B2
Conditions: with ehd3_human EHD3, Q9NZN3

| Variant | effect of a mutation on the interaction |
| --- | --- |
| MFSWLGNDDRRKKDPEVFQTVSDGLKKLYKTKLLPLEEYYRFHEFHSPALEDADFDNKPMVLLVGQYSTGKTTFIRYLLEQDFPGMRIGPEPTTDSFIAVMQGDVEGIIPGNALVVDPKKPFRKLNAFGNAFLNRFVCAQLPNAVLESISVIDTPGILSGEKQRISRGYDFAAVLEWFAERVDRIILLFDAHKLDISDEFSEVIKALKNHEDKMRVVLNKADQIETQQLMRVYGALMWSLGKIVNTPEVIRVYIGSFWSHPLLIPDNRKLFEAEEQDLFRDIQSLPRNAALRKLNDLIKRARLAKVHAYIISSLKKEMPSVFGKDTKKKELVNNLAEIYGRIEREHQISPGDFPNLKRMQDQLQAQDFSKFQPLKSKLLEVVDDMLAHDIAQLMVLVRQEETQRPVQMVKGGAFEGTLQGPFGHGYGEGAGEGIDDAEWVVARDKPMYDEIFYTLSPVDGKITGANAKKEMVRSKLPNSVLGKIWKLADIDKDGMLDDEEFALANHLIKVRLEGHELPSELPAHLLPPSKRKVSE [K511R] | decreasing interaction |
| MFSWLGNDDRRKKDPEVFQTVSDGLKKLYKTKLLPLEEYYRFHEFHSPALEDADFDNKPMVLLVGQYSTGKTTFIRYLLEQDFPGMRIGPEPTTDSFIAVMQGDVEGIIPGNALVVDPKKPFRKLNAFGNAFLNRFVCAQLPNAVLESISVIDTPGILSGEKQRISRGYDFAAVLEWFAERVDRIILLFDAHKLDISDEFSEVIKALKNHEDKMRVVLNKADQIETQQLMRVYGALMWSLGKIVNTPEVIRVYIGSFWSHPLLIPDNRKLFEAEEQDLFRDIQSLPRNAALRKLNDLIKRARLAKVHAYIISSLRKEMPSVFGKDTKKKELVNNLAEIYGRIEREHQISPGDFPNLKRMQDQLQAQDFSKFQPLKSKLLEVVDDMLAHDIAQLMVLVRQEETQRPVQMVKGGAFEGTLQGPFGHGYGEGAGEGIDDAEWVVARDKPMYDEIFYTLSPVDGKITGANAKKEMVRSKLPNSVLGKIWKLADIDKDGMLDDEEFALANHLIKVRLEGHELPSELPAHLLPPSKRKVSE [K315R;K511R] | decreasing interaction |

Variants of: B2
Conditions: with ehd3_human EHD3, Q9NZN3
Remark: another data set of the same source

| Variant | effect of a mutation on the interaction |
| --- | --- |
| MFSWLGNDDRRKKDPEVFQTVSDGLKKLYKTKLLPLEEYYRFHEFHSPALEDADFDNKPMVLLVGQYSTGKTTFIRYLLEQDFPGMRIGPEPTTDSFIAVMQGDVEGIIPGNALVVDPKKPFRKLNAFGNAFLNRFVCAQLPNAVLESISVIDTPGILSGEKQRISRGYDFAAVLEWFAERVDRIILLFDAHKLDISDEFSEVIKALKNHEDKMRVVLNKADQIETQQLMRVYGALMWSLGKIVNTPEVIRVYIGSFWSHPLLIPDNRKLFEAEEQDLFRDIQSLPRNAALRKLNDLIKRARLAKVHAYIISSLRKEMPSVFGKDTKKKELVNNLAEIYGRIEREHQISPGDFPNLKRMQDQLQAQDFSKFQPLKSKLLEVVDDMLAHDIAQLMVLVRQEETQRPVQMVKGGAFEGTLQGPFGHGYGEGAGEGIDDAEWVVARDKPMYDEIFYTLSPVDGKITGANAKKEMVRSKLPNSVLGKIWKLADIDKDGMLDDEEFALANHLIKVRLEGHELPSELPAHLLPPSKRKVSE [K315R;K511R] | with no effect |
